{
  "source": "patent US20180086836A1",
  "about": "(GLENMARK PHARMACEUTICALS S A, published 2018)",
  "binders": {"B1": {"name": "VH5/VL1-L3-G8 scFv variant (scFv)", "scFv": "EVQLVESGGGLVQPGGSLRLSCAASGFSFSDYYMYWVRQAPGKGLEWVSYITNGGITYYPDSVKGRFTISRDNSKNTLYLQMNSLRAEDTAVYYCTSPLRGAWFAYWGQGTLVTVSSGGGGSGGGGSGGGGSTDVVMTQSPLSLPVTLGQPASISCRSSQSIVHSNGNTYLEWYQQRPGQSPRLLIYKVSNRFSGVPDRFSGSGSGTDFTLKISRVEAEDVGVYYCFQGTYLPLTFGQGTKLEIK"}, "B2": {"name": "4H11 (antibody, V domains shown)", "VH": "EVKLVESGGGLVQPGGSLKLSCATSGFSFSDYYMYWIRQTPEKRLEWVAYITNGGITYYPDTVKGRFTISRDNAKNTLYLQMSRLRSEDTAMYYCTSPLRGAWFAYWGQGTLVTVSS", "VL": "DVIMTQSPLSLPVSLGDQASISCRSSQSIVHSNGNTYLEWYLQKPGQSPKLLIYKVSNRFSGVPDRFSGSGSGTDFTLKISRVEAEDLGLYYCFQGSHVPLTFGAGTKLEIK", "notes": "parent of the chimeric 4H11 antibody m1; also called murine antibody 4H11; hybridoma clone 4H11"}, "B3": {"name": "VH5/VL1 L1-N28T FAB (Fab, V domains shown)", "VH": "EVQLVESGGGLVQPGGSLRLSCAASGFSFSDYYMYWVRQAPGKGLEWVSYITNGGITYYPDSVKGRFTISRDNSKNTLYLQMNSLRAEDTAVYYCTSPLRGAWFAYWGQGTLVTVSS", "VL": "DVVMTQSPLSLPVTLGQPASISCRSSQSIVHSTGNTYLEWYQQRPGQSPRLLIYKVSNRFSGVPDRFSGSGSGTDFTLKISRVEAEDVGVYYCFQGSHVPLTFGQGTKLEIKR", "notes": "CDR-L1 deamidation-site variant; copies: 1 + 1"}, "B4": {"name": "VH5/VL1 FAB (parental) (Fab, V domains shown)", "VH": "B3 VH", "VL": "B2 VL with I3V, S14T, D17Q, Q18P, L42Q, K44R, K50R, L88V, L90V, A105Q", "notes": "Human FAB fragment; also called parental FAB; parental VH5/VL1 FAB"}, "B5": {"name": "VH5/VL1 L1-G29A FAB (Fab, V domains shown)", "VH": "B3 VH", "VL": "DVVMTQSPLSLPVTLGQPASISCRSSQSIVHSNANTYLEWYQQRPGQSPRLLIYKVSNRFSGVPDRFSGSGSGTDFTLKISRVEAEDVGVYYCFQGSHVPLTFGQGTKLEIK", "notes": "VH5/VL1 FAB fragment with G29A in CDR-L1"}, "B6": {"name": "VH5/VL1-B3C9-G29A FAB (Fab, name in Kabat numbering, V domains shown)", "VH": "B3 VH with N53T, I56R", "VL": "B5 VL with S97T, H98Y, V99Y"}, "B7": {"name": "VH5/VL1 L1-N28S FAB (Fab, V domains shown)", "VH": "B3 VH", "VL": "B3 VL with T33S", "notes": "as for B3"}, "B8": {"name": "VH5/VL1-G8-G29A FAB (Fab, V domains shown)", "VH": "B3 VH", "VL": "B5 VL with S97T, H98Y, V99L"}, "B9": {"name": "VH5/VL1-B3G8-G29A FAB (Fab, name in Kabat numbering, V domains shown)", "VH": "B3 VH with N53T, I56R", "VL": "B5 VL with S97T, H98Y, V99L"}, "B10": {"name": "VH5/VL1-C9-G29A FAB (Fab, V domains shown)", "VH": "B3 VH", "VL": "B5 VL with S97T, H98Y, V99Y"}, "B11": {"name": "4H11 VH5/VL1 IgG1 antibody (antibody, V domains shown)", "VH": "B3 VH", "VL": "B3 VL with T33N", "notes": "also called H5/L1; VH5/VL1 antibody"}},
  "key": {"[1]": {"molecular_target": "T1, recombinant human N-terminal CCR6 Fc (human)", "T1 construct": "also called human CCR6-Fc; hsCCR6-Nter-Fc", "assay": "SPR (Biacore) off-rate ranking of scFv on the human CCR6 N-terminal Fc fusion"}, "human CCR6": {"molecular_target": "T2, human CCR6 (human, UniProt P51684 1-374)", "T2 construct": "Full length human CCR6 on transfected BAF or CHO cells, or native on human PBMCs; also called hsCCR6; CCR6 receptor", "T2 sequence": "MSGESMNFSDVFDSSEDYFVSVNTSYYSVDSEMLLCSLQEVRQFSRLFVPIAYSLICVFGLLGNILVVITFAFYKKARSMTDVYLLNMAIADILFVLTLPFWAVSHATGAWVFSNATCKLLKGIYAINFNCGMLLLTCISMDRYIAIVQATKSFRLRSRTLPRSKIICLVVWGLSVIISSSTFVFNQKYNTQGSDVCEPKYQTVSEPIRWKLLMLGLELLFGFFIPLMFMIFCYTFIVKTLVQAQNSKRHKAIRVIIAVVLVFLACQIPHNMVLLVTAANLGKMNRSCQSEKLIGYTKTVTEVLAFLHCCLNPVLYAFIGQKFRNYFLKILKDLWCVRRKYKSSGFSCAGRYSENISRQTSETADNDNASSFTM", "assay": "flow cytometry on BAF cells transfected with human CCR6, hybridoma supernatant, anti-mouse IgG-PE", "description": "Antibody titers, specificity and production by hybridomas and recombinant antibody candidates were determined by flow cytometry. Briefly, BAF cells transfected with human CCR6 (Generation of these transfected cells is detailed in example 1) were cultured and 2×10⁵ cells were distributed in a 96 well V bottom plate (TPP, Trasadingen, Switzerland), and centrifuged for three minutes at 1300 rpm; supernatants were discarded, cells were collected and analyzed by flow cytometry as described below. Cells were resuspended in 50 μl of hybridoma supernatant or in 50 μl of FACS buffer (PBS, 2% FBS, 10% Versene (Invitrogen, USA)) with 5 μg/mL of isotype control or commercial mouse anti-human CCR6 antibody (clone 11A9, BD Biosciences, Allschwil, Switzerland). Cells were incubated for 30 minutes on ice, washed two times and resuspended in 50 μl of FACS buffer. An anti-mouse IgG-Phycoerithrin-PE (BD Biosciences, Allschwil, Switzerland) diluted 1/200 was used to detect CCR6-specific mouse hybridoma and the isotype control antibody. Cells were incubated for 15 minutes on ice, washed once, resuspended in 400 μl of FACS buffer and analyzed on the FACS instrument (Cyan, Beckman Coulter International S.A., Nyon, Switzerland)."}, "[2]": {"molecular_target": "T1, recombinant human N-terminal CCR6 Fc", "assay": "SPR, human CCR6 N-terminal peptide Fc on the chip, FAB as analyte"}, "[3]": {"molecular_target": "T3, recombinant cynomologus N-terminal CCR6 peptide Fc (cynomolgus monkey; human)", "T3 construct": "It differs from the human construct only in the CCR6 N-terminus; also called Cyno CCR6-Fc; cynoCCR6-Nter-Fc", "assay": "SPR, cynomolgus CCR6 N-terminal Fc fusion coupled on the sensor chip, FAB as analyte"}, "[4]": {"molecular_target": "T1, recombinant human N-terminal CCR6 Fc", "assay": "SPR, FAB as analyte, fusion protein coupled onto the sensor chip"}, "[5]": {"molecular_target": "T3, recombinant cynomologus N-terminal CCR6 …", "assay": "SPR, FAB as analyte, fusion protein coupled onto the sensor chip"}, "[6]": {"molecular_target": "T1, recombinant human N-terminal CCR6 Fc", "assay": "SPR, human CCR6 N-terminal Fc fusion coupled on the sensor chip, FAB as analyte"}, "[7]": {"molecular_target": "T1, recombinant human N-terminal CCR6 Fc", "assay": "direct ELISA, Fc fusion coated at 2 µg/ml, anti-human F(ab')2-HRP", "description": "(§1) FIG. 8: Direct binding ELISA on immobilized recombinant human N-terminal CCR6 Fc. Binding of humanized 4H11 H5L1 antibody on human N terminus fragment of CCR6 was measured by direct ELISA. Various concentrations (ranging from 10 to 0.00006 μg/ml) of humanized 4H11 H5L1 in IgG1 and IgG4HS backbones were incubated with 2 μg/ml of either recombinant human N terCCR6-Fc tagged protein (FIG. 8A) or recombinant cynomologus N-terminal peptide Fc (FIG. 8B), coated overnight at 4° C. in a 96-well plate. Binding of humanized 4H11 H5L1 antibody to Nter CCR6-Fc protein was detected by horseradish peroxidase (HRP)-conjugated anti-human (Fab)′2-specific antibody.\n(§2) A binding ELISA was performed to test the reactivity of 4H11 VH5/VL1 IgG1 and 4H11 VH5/VL1 IgG4HS antibodies on peptides consisting of the N-terminal region of CCR6 from human and cynomologus species. Briefly, 96 well-microtiter plates (Costar USA, distributor VWR AG, Nyon, Switzerland) were coated with 100 μl of recombinant human and cynomologus N-terminus peptide-Fc at 2 μg/ml in PBS. Plates were incubated overnight at 4° C. and were then blocked with PBS 2% BSA (Bovine Serum Albumine, PAA Laboratories, Pasching, Austria) at room temperature (RT) for one hour. The blocking solution was removed and various concentrations of 4H11 VH5/VL1 IgG1 and 4H11 VH5/VL1 IgG4HS were added. The plates were incubated at RT for 1 hour, then washed six times with PBS 0.01% Tween-20 (Sigma-Aldrich Chemie GmbH, Buchs, Switzerland) and a goat-anti human Ig F(ab′)2 fragment specific-HRP (Jackson ImmunoResearch Europe Ltd, Newmarket, UK). After washing, the plates were incubated with TMB substrate (Bio-Rad Laboratories AG, Reinach, Switzerland) to reveal antibody binding. The reaction was stopped by adding 2M H₂SO₄ and the optical density was read at 450 nm (OD 450 nm) on a Synergy HT2 spectrophotometer (Biotek, USA; distributor: WITTEC AG, Littau, Switzerland)."}, "[8]": {"molecular_target": "T3, recombinant cynomologus N-terminal CCR6 …", "assay": "direct ELISA, Fc fusion coated at 2 µg/ml, anti-human F(ab')2-HRP", "description": "as §1, §2"}},
  "note": "Changes are numbered by the printed parent chain. In names and notes the source's numbering stands.",
  "data": [
    {"binder": "B1", "values": [
      {"measurement": "binding result", "setting": "[1]", "result": "binds"}
    ]},
    {"binder": "B2", "values": [
      {"measurement": "binding result", "setting": "human CCR6", "result": "binds"}
    ]},
    {"binder": "B3", "values": [
      {"measurement": "binding result", "setting": "[2]", "result": "binds"}
    ]},
    {"binder": "B4", "values": [
      {"measurement": "Kd", "setting": "[3]", "result": 33.6, "unit": "nM"}
    ]},
    {"binder": "B5", "values": [
      {"measurement": "binding result", "setting": "[2]", "result": "binds"}
    ]},
    {"binder": "B6", "values": [
      {"measurement": "Kd", "setting": "[3]", "result": 1.23, "unit": "nM"},
      {"measurement": "Kd", "setting": "[4]", "result": "~0.5", "unit": "nM"},
      {"measurement": "fold improvement in KD value over the first pair of FAB constructs", "setting": "[4]", "result": 2, "unit": "fold"},
      {"measurement": "fold improvement in affinity compared to the parental VH5/VL1 FAB", "setting": "[4]", "result": "~40", "unit": "fold"},
      {"measurement": "Kd", "setting": "[5]", "result": "~1", "unit": "nM"},
      {"measurement": "fold improvement in affinity compared to the parental VH5/VL1 FAB", "setting": "[5]", "result": "~30", "unit": "fold"},
      {"measurement": "Kd", "setting": "[6]", "result": 0.544, "unit": "nM"}
    ]},
    {"binder": "B7", "values": [
      {"measurement": "binding result", "setting": "[2]", "result": "binds"}
    ]},
    {"binder": "B8", "values": [
      {"measurement": "Kd", "setting": "[3]", "result": 2.19, "unit": "nM"},
      {"measurement": "fold improvement in KD value compared to the parental FAB", "setting": "[4]", "result": "~20", "unit": "fold"},
      {"measurement": "Kd", "setting": "[6]", "result": 1, "unit": "nM"}
    ]},
    {"binder": "B9", "values": [
      {"measurement": "Kd", "setting": "[3]", "result": 1.17, "unit": "nM"},
      {"measurement": "Kd", "setting": "[4]", "result": "~0.5", "unit": "nM"},
      {"measurement": "fold improvement in KD value over the first pair of FAB constructs", "setting": "[4]", "result": 2, "unit": "fold"},
      {"measurement": "fold improvement in affinity compared to the parental VH5/VL1 FAB", "setting": "[4]", "result": "~40", "unit": "fold"},
      {"measurement": "Kd", "setting": "[5]", "result": "~1", "unit": "nM"},
      {"measurement": "fold improvement in affinity compared to the parental VH5/VL1 FAB", "setting": "[5]", "result": "~30", "unit": "fold"},
      {"measurement": "Kd", "setting": "[6]", "result": 0.526, "unit": "nM"}
    ]},
    {"binder": "B10", "values": [
      {"measurement": "Kd", "setting": "[3]", "result": 2.79, "unit": "nM"},
      {"measurement": "fold improvement in KD value compared to the parental FAB", "setting": "[4]", "result": "~20", "unit": "fold"},
      {"measurement": "Kd", "setting": "[6]", "result": 1.28, "unit": "nM"}
    ]},
    {"binder": "B11", "values": [
      {"measurement": "EC50 (read off the curve)", "setting": "[7]", "result": "~0.07", "unit": "µg/mL"},
      {"measurement": "EC50 (read off the curve)", "setting": "[8]", "result": "~0.2", "unit": "µg/mL"}
    ]}
  ]
}
